The results in this text go back to PMC5418593.

In data set [1] the target is T1, hEXOG-R314A (human, UniProt Q9Y2C4 59-368, R314A;del2-58). As to the kind of experiment: EMSA; 20 mM EDTA; apparent Kd; EK140: 20 mM HEPES pH 7.5, 140 mM KCl, 1 mM TCEP, 5% glycerol; plus 20 mM EDTA for anisotropy and EMSA (gel at 4 C, 0.5x TBE with 20 mM EDTA); ITC in EK140 at 20 C. Particulars: protein: recombinant; tags: C-terminal His-tag; chain copies: 2; label: 5'-32P; 10 bp duplex. (In EMSA bound probe runs differently from free probe, usually more slowly.)

Data set [2] addresses T2, hEXOG wild type (hEXOG-dN58) (human, UniProt Q9Y2C4 59-368, del2-58). Described as above. Particulars: protein: recombinant; tags: C-terminal His-tag; chain copies: 2; label: 5'-32P; 10 bp duplex.
In data set [3] the target is T2, hEXOG wild type (hEXOG-dN58). As to the kind of experiment: fluorescence anisotropy; 20 mM EDTA; apparent Kd; EK140: 20 mM HEPES pH 7.5, 140 mM KCl, 1 mM TCEP, 5% glycerol; plus 20 mM EDTA for anisotropy and EMSA (gel at 4 C, 0.5x TBE with 20 mM EDTA); ITC in EK140 at 20 C. The following applies: protein: recombinant; tags: C-terminal His-tag; chain copies: 2; label: 3'-fluorescein; 10 bp duplex.

Data set [4] shares this target. As to the kind of experiment: fluorescence anisotropy; 20 mM EDTA; apparent Kd (main text 6.2); EK140: 20 mM HEPES pH 7.5, 140 mM KCl, 1 mM TCEP, 5% glycerol; plus 20 mM EDTA for anisotropy and EMSA (gel at 4 C, 0.5x TBE with 20 mM EDTA); ITC in EK140 at 20 C. Particulars: protein: recombinant; tags: C-terminal His-tag; chain copies: 2; label: 3'-fluorescein; 10 bp duplex. (In fluorescence polarisation assays a small probe gives low polarisation when free and higher when bound to something large.)

Data set [5] deals with T1, hEXOG-R314A. As to the kind of experiment: fluorescence anisotropy; 20 mM EDTA; apparent Kd; EK140: 20 mM HEPES pH 7.5, 140 mM KCl, 1 mM TCEP, 5% glycerol; plus 20 mM EDTA for anisotropy and EMSA (gel at 4 C, 0.5x TBE with 20 mM EDTA); ITC in EK140 at 20 C. Particulars: protein: recombinant; tags: C-terminal His-tag; chain copies: 2; label: 3'-fluorescein; 10 bp duplex.
For another data set, the target named is hEXOG-H140A (human, UniProt Q9Y2C4 59-368, H140A;del2-58). As to the kind of experiment: X-ray crystallography; 1.85 A; DNA in both active sites; EK140: 20 mM HEPES pH 7.5, 140 mM KCl, 1 mM TCEP, 5% glycerol; plus 20 mM EDTA for anisotropy and EMSA (gel at 4 C, 0.5x TBE with 20 mM EDTA); ITC in EK140 at 20 C. The following applies: protein: recombinant; tags: C-terminal His-tag; chain copies: 2; 10 bp duplex; two duplexes per dimer.

B1: 10 bp dsDNA, 5'-32P (dsDNA)
DNA 1: CTGACGTGCG
DNA 2: CGCACGTCAG
modifications: 5'-phosphate (32P)
Turning to B1, the values for the Kd (with hEXOG-R314A [1]; in data set [2]) were 26.5 ± 6.6 nM and 3.4 ± 1.2 nM, respectively.

B2: 10 bp 5'OH-dsDNA, 3'-fluorescein (dsDNA)
DNA 1: CTGACGTGCG
DNA 2: CGCACGTCAG
modifications: 5'-OH
B2: in data set [3], the Kd turned out to be 22.2 ± 5.1 nM.

B3: 10 bp 5'P-dsDNA, 3'-fluorescein (dsDNA)
DNA 1: CTGACGTGCG
DNA 2: CGCACGTCAG
modifications: 5'-phosphate on one strand
Turning to B3, the Kd worked out at 6.25 ± 2 nM in data set [4] and 35.7 ± 7.2 nM with hEXOG-R314A [5].

B4: 10 bp DNA for crystallization (dsDNA)
DNA 1: CTGACGTGCG
DNA 2: CGCACGTCAG
modifications: 5'-phosphate on one strand only
In the case of B4, in the data set with hEXOG-H140A, the binding result is on record as “binds”.
